These results are taken from patent US20140294898A1 (published 2014).

For one experiment, the target named is T1, hPDL1(19-239)-TVMV-His (human, UniProt Q9NZQ7 19-239).
T1 construct: The text says amino acids 18-239, the construct name says 19-239; also called PD-L1-His; PD-L1-TVMV-His
Nature of the experiment: HTRF competition, PD-1-Ig binding to PD-L1-His. For orientation: Time-resolved FRET reads energy transfer from a long-lived donor to a nearby acceptor.

The target of experiment [1] is T2, human PD-L1 expressed on cells (human, UniProt Q9NZQ7 19-290).
T2 construct: whole, on cells; In the CMV recall assay PD-L1 is the endogenous protein on donor PBMC; also called hPD-L1; LK35.2-hPD-L1
T2 sequence (Q9NZQ7 19-290): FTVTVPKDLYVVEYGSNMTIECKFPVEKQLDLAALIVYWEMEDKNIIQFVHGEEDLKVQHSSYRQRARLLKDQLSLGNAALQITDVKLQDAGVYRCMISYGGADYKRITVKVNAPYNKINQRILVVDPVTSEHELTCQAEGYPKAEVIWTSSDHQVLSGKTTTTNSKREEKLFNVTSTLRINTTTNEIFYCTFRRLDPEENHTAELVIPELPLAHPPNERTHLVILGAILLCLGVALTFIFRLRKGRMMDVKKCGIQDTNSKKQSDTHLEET
Nature of the experiment: cell binding assay, PE-labeled PD-1-Ig on cells over-expressing human PD-L1, high-content imaging.

T1 sequence (Q9NZQ7 other isoform, or with tags, fused parts or gaps limits assumed): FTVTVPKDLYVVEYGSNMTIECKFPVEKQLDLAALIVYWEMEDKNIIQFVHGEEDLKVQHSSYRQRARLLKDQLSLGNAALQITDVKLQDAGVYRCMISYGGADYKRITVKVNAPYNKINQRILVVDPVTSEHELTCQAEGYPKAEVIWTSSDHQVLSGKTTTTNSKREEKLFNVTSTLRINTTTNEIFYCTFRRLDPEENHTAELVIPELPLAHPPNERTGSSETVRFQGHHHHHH

B1: Example 3526 (peptide)
peptide: FFXGDVFYGYYLCG
HELM: PEPTIDE1{[O=C(C[*:3])[*:2]].F.[meF].[CCCC[C@@H](C(=O)[*:2])N(C)[*:1]].[Sar].D.V.[meF].Y.[Sar].Y.Y.L.C.G.[am]}$PEPTIDE1,PEPTIDE1,1:R3-14:R3$$$V2.0
SMILES: CCCC[C@H]1C(=O)N(C)CC(=O)N[C@@H](CC(=O)O)C(=O)N[C@@H](C(C)C)C(=O)N(C)[C@@H](Cc2ccccc2)C(=O)N[C@@H](Cc2ccc(O)cc2)C(=O)N(C)CC(=O)N[C@@H](Cc2ccc(O)cc2)C(=O)N[C@@H](Cc2ccc(O)cc2)C(=O)N[C@@H](CC(C)C)C(=O)N[C@H](C(=O)NCC(N)=O)CSCC(=O)N[C@@H](Cc2ccccc2)C(=O)N(C)[C@@H](Cc2ccccc2)C(=O)N1C
notes: ClAc-Phe-[N-Me]Phe-[N-Me]Nle-Sar-Asp-Val-[N-Me]Phe-Tyr-Sar-Tyr-Tyr-Leu-Cys-Gly-NH2, cyclised
As usually defined, the IC50 is the midpoint of a concentration-inhibition curve. A low value points to greater potency. Regarding B1, the IC50 with hPDL1(19-239)-TVMV-His worked out at 132 nM; in experiment [1] it was 629 nM.
